Where no end group is shown, it is not given here. The star is where a group is joined. Farnesyl = CC(C)=CCC/C(C)=C/CC/C(C)=C/C*

Experiment [1] concerns the target calmodulin (CaM), full-length, amino acids 2-148 (human, UniProt P0DP23 2-148). As to the kind of experiment: ITC. In general terms: ITC needs no label: the signal is the heat of the interaction.
Experiment [2] has the same target. As to the kind of experiment: ITC. The source holds these as a separate data set.

Turning to HKEKMSKDGKKKKKKSKTKC(Farnesyl)-OMe [HVR-FMe (hypervariable region of KRAS4b, farnesylated and carboxy-methylated)], the Kd in experiment [1] came to 300 nM.

As for KSKTKC (not fully specified; cysteine with a five-carbon prenyl group, methylated (PMe)) [KSKTKC-prenyl methylated (KSKTKC-PMe)], in experiment [2], binding was characterised by a dissociation constant (Kd) of 30000 nM.

Take KSKTKC(geranyl) (not fully specified (C-terminus); also: methylated (site not given here)) [KSKTKC-geranyl methylated (KSKTKC-GMe)]: the Kd in experiment [2] is 3000 nM.

For KSKTKC(Farnesyl)-OMe [KSKTKC-FMe], the Kd in experiment [2] stood at 400 nM. Against the preceding molecule, the Kd is about 7.5-fold lower.

Broadly, the Kd is the free concentration of one partner at which half of the binding sites on the other are occupied at equilibrium, for simple one-to-one binding. Higher therefore signals lower affinity.

These data come from paper PMC6428923 (Biophysical Journal, 2019).
